From US20240317826A1, “COMPOSITIONS AND METHODS FOR TREATING AND/OR I[…] AGENT FOR TREATING HIV-1 INFECTIONS” (priority 2021, published 2024) come the findings set out here.

For one experiment, the target named is T1, IN-TAR RNA interaction (Human immunodeficiency virus type 1 group M subtype B, UniProt P04585).
T1 construct: made in house; host or cells: bacteria (E. coli inferred from the pGEX vector)
The experiment can be described thus: Alpha interaction assay: effect of stapled peptides on IN-TAR RNA interaction. It is filed as binding, HIV-1. The settings on record: in vitro. Here is the method: (§1) FIG. 8A-FIG. 8D show quantitative alpha interaction assay to determine the effect of stapled peptides on the interaction of IN and IN-CTD with INI1 and INI1183-304 or TAR RNA. […] Fixed concentrations of GST-IN, 6His-INI1, and TAR RNA were incubated with increasing concentration of stapled peptides and the interaction was detected as Alpha Score. The IC50 values were determined by fitting the data to a four-parameter dose-response curve using Graph Pad prism. All the graphs represent the average of three independent experiments (Mean+/−SEM).
(§2) AlphaScreen proximity assay to detect the protein-protein and protein-RNA interactions. AlphaScreen assay was carried out using PerkinElmer Alpha-Lisa-6His Acceptor beads (Catalogue #AL128C), Alpha-Screen-GST donor beads (Catalogue #6765300), GST-tagged and His-tagged proteins for protein-protein interactions; and Alpha-Screen Streptavidin donor beads (Catalogue #6760002 S), Alpha-Lisa-GST acceptor beads (Catalogue #AL110C), Biotin-labeled RNA and GST-tagged proteins for protein-RNA interactions. The reaction was carried out according to the manufacturer's protocol in a reaction buffer contacting (25 mM HEPES pH 7.4, 100 mM NaCl (or 500 mM NaCl), 1 mM DTT, 1 mM MgCl2 and BSA 1 mg ml/ml). The mixture of proteins or protein and RNA were incubated for 1 hr at room temperate with shaking in a multi micro-plate shaker and then 20 ag ml/ml accepter beads were added and incubated for additional 1 h with shaking. Finally, 20 ag ml^−1 of donor beads were added and further incubated for 1 hr. The Alpha score readings were measured using Alpha-compatible Envision 2105 multi-plate reader (Perkin-Elmer). All the experiments related to this method were carried out 3 to 5 times and data were analyzed by using Graph Pad Prism 9 version 9.0.0 (GraphPad Software, CA). The RNA sequences used in this assay are listed in the Table 6d and were obtained from Integrated DNA technology.
(§3) These peptides were tested for their ability to disrupt the interaction between IN-INI1 and IN-TAR RNA in vitro.

The next experiment concerns the target T2, IN-INI1 interaction (Human immunodeficiency virus type 1 group M subtype B, UniProt P04585).
T2 construct: made in house; host or cells: bacteria (E. coli inferred from the pGEX vector)
The experiment can be described thus: Alpha interaction assay: effect of stapled peptides on IN-INI1 interaction. It is filed as binding, HIV-1. The settings on record: in vitro. Here is the method:
as §1, §2, §3

Where no end group is shown, it is not given here.

For the substance “lys-Leu-Met-Thr-Pro-Glu-Met-Phe-Ser-Glu-Ile-Leu-Cys-Asp-Leu-Asn (KLMTPEMFSEILCDLN; not fully specified; printed as lys-Leu-Met-Thr-Pro-Glu-Met-Phe-Ser-Glu-Ile-Leu-Cys-Asp-Leu-Asn) [SP80, Linear peptide (without stapling) derived from Alpha helix 1 of INI1 Rpt-1 domain]”, the “inhibition of IN-TAR RNA interactions” value with IN-TAR RNA interaction is on record as “did not inhibit”. Moreover, the “inhibition of IN-INI1 interactions” value in the experiment with IN-INI1 interaction was “did not inhibit”.
As to “lys-Leu-Met-Thr-Pro-Glu-R8-Met-Phe-Glu-Ile-Leu-S5-Cys-Asp-Leu-Asn [SP39]”, at IN-TAR RNA interaction, the “IC50, inhibition of IN-TAR RNA interactions” value is recorded as “low nanomolar”. On IN-INI1 interaction, the “IC50, inhibition of IN-INI1 interactions” value is “low nanomolar”.
